Measurements published in paper PMC12412624, “Engineered Cas12j‐8 is a Versatile Platform for Multiplexed Genome Modulation in Mammalian Cells”.
Changes are numbered by the printed parent chain.

Key:
[1] = test system: T1, dCas12j-8 E119R E119R;D369A;E567A;D658A (bacteriophage (metagenome)); conditions: HEK293T cells; panel 1c (compare within a panel only); scale: mean GFP / mean GFP of wild type, printed, no background subtraction
T1 sequence: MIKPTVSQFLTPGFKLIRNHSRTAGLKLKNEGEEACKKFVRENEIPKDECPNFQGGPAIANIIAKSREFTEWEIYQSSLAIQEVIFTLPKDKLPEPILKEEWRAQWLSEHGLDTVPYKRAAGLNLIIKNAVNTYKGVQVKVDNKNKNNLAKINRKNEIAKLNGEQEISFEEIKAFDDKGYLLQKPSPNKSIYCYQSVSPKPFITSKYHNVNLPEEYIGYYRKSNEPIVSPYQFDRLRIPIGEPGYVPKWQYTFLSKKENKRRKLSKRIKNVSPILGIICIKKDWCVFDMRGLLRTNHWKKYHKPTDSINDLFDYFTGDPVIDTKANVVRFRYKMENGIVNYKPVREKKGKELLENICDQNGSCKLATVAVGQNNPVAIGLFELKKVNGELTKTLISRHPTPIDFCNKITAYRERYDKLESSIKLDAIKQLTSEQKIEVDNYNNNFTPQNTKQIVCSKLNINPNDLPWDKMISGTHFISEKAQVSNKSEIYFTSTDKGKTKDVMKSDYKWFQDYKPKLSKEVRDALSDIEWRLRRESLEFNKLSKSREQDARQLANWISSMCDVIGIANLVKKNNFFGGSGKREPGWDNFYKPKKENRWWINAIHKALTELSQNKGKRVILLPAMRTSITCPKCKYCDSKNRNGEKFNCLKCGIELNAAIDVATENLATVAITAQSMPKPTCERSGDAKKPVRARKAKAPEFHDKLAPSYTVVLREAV

[2] = test system: T2, dCas12j-8 D403R D403R;D369A;E567A;D658A (bacteriophage (metagenome)); conditions: HEK293T cells; panel 1c (compare within a panel only); scale: mean GFP / mean GFP of wild type, printed, no background subtraction
T2 sequence: T1 sequence with R119E, D403R

[3] = test system: T3, dCas12j-8 E258R+D495R+E547R E258R;D495R;E547R;D369A;E567A;D658A (bacteriophage (metagenome)); conditions: HEK293T cells; panel 1e (compare within a panel only); scale: mean GFP / mean GFP of wild type, printed, no background subtraction
T3 sequence: T1 sequence with R119E, E258R, D495R, E547R

[4] = test system: T4, dCas12j-8 E419R E419R;D369A;E567A;D658A (bacteriophage (metagenome)); conditions: HEK293T cells; panel 1c (compare within a panel only); scale: mean GFP / mean GFP of wild type, printed, no background subtraction
T4 sequence: T1 sequence with R119E, E419R

**Q.** What does the source list for “CUUUCAAGACUAAUAGAUUGCUCCUUACGAGGAGACACUCCCUAUCAGUGAUAGAG / TTNACTCCCTATCAGTGATAGAG / CTCTATCACTGATAGGGAGTNAA [TetO]”?
**A.** binding signal [1]: 1.08; binding signal [2]: 0.365; binding signal [3]: 4.13; binding signal [4]: 0.894
